Experimental data as given in patent US20190092852A1 (Genentech, published 2019).

Legend:
human IL-13 (Peprotech) [1] = target: T1, human IL-13 (Peprotech) (human, UniProt P35225 35-146); experiment: SPR, BIACORE 3000, antibody captured on anti-human Fab, 25 C, 1:1 Langmuir model; lot 2
Description: (§1) The binding kinetics of the bispecific antibody 10C12-IL13 KIH IgG4 to human IL-33, cyno IL-33, and human IL-13 was assessed using SPR on a BIACORE® 3000 (GE Healthcare). Anti-human Fab (GE Healthcare) was immobilized on a CM5 sensor chip via amine-based coupling according to the manufacturer's protocol. The bispecific antibody was captured and binding was measured to human IL-33 (Genentech), cyno IL-33 (Genentech), and human IL-13 (Peprotech). […] Sensograms for binding of cytokine were recorded using an injection time of 2 min with a flow rate of 30 μl/min, at a temperature of 25° C., and with a running buffer of 10 mM HEPES, pH 7.4, 150 mM NaCl, 3 mM EDTA, and 0.005% TWEEN®-20. After injection, disassociation of the ligand from the antibody was monitored for 600 sec in running buffer. The surface was regenerated between binding cycles with a 40 μl injection of 10 mM Glycine-HCl pH 2.1. After subtraction of a blank which contained running buffer only, sensograms observed for cytokine binding to the bispecific antibody were analyzed using a 1:1 Langmuir binding model with software supplied by the manufacturer to calculate the kinetics and binding constants, including the dissociation constant (KD).

[2] = target: T2, cyno IL-33 (construct not stated) (cynomolgus monkey, UniProt A0A2K5W3I1 112-269); experiment: as above
T2 construct: also called cynomolgus IL-33; cyno IL-33 (Genentech)
T2 sequence: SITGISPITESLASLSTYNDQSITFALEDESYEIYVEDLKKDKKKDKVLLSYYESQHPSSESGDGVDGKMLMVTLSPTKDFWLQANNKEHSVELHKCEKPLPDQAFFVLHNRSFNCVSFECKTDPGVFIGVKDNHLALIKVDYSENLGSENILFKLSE
Description: as §1

[3] = target: T3, human IL-33 (construct not stated) (human, UniProt O95760 112-270); experiment: as above
T3 construct: also called human IL-33 (Genentech); recombinant human IL33
T3 sequence (looked up): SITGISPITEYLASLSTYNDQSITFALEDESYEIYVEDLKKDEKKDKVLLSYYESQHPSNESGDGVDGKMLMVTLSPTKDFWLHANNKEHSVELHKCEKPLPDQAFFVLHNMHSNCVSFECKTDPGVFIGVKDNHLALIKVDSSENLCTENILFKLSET
Description: as §1

[4] = target: T3, human IL-33 (construct not stated); experiment: cell-based or functional assay
human IL-13 (Peprotech) [5] = target: T1, human IL-13 (Peprotech); experiment: SPR Biacore 3000, captured by anti-human Fab, 25 C, mean of three lots
Description: (§2) The binding kinetics of the bispecific antibody 10C12-IL-13 KIH IgG4 to human IL-33, cyno IL-33, and human IL-13 was assessed using BIACORE® 3000 SPR (FIG. 20).
as §1

[6] = target: T2, cyno IL-33 (construct not stated); experiment: as above
Description: as §2, §1

[7] = target: T3, human IL-33 (construct not stated); experiment: as above
Description: as §2, §1

human IL-13 (Peprotech) [8] = target: T1, human IL-13 (Peprotech); experiment: SPR, BIACORE 3000, antibody captured on anti-human Fab, 25 C, 1:1 Langmuir model; lot 1
Description: as §1

[9] = target: T2, cyno IL-33 (construct not stated); experiment: as above
Description: as §1

[10] = target: T3, human IL-33 (construct not stated); experiment: as above
Description: as §1

human IL-13 (Peprotech) [11] = target: T1, human IL-13 (Peprotech); experiment: SPR, BIACORE 3000, antibody captured on anti-human Fab, 25 C, 1:1 Langmuir model; lot 3
Description: as §1

[12] = target: T2, cyno IL-33 (construct not stated); experiment: as above
Description: as §1

[13] = target: T3, human IL-33 (construct not stated); experiment: as above
Description: as §1

human IL-33 N-His = target: T4, human IL-33 N-His (human); experiment: cell-based or functional assay
T4 chain: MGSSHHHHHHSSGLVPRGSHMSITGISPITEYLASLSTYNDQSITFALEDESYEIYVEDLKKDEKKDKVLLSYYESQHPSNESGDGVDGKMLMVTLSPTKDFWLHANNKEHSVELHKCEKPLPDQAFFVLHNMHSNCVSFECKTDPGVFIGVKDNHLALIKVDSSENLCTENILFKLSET

T1 sequence (P35225 35-146 limits assumed): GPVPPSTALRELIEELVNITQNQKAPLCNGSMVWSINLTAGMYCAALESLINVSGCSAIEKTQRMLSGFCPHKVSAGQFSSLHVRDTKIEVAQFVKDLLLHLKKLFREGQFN

B1: 10C12.38.H6.87Y.58I/IL-13 IgG4 (bispecific antibody)
heavy 1: EVQLVESGGGLVQPGGSLRLSCAASGFTFSSFSMSWVRQAPGKGLEWVATISGGKTFTDYVDSVKGRFTISRDDSKNTLYLQMNSLRAEDTAVYYCTRANYGNWFFEVWGQGTLVTVSSASTKGPSVFPLAPCSRSTSESTAALGCLVKDYFPEPVTVSWNSGALTSGVHTFPAVLQSSGLYSLSSVVTVPSSSLGTKTYTCNVDHKPSNTKVDKRVESKYGPPCPPCPAPEFLGGPSVFLFPPKPKDTLMISRTPEVTCVVVDVSQEDPEVQFNWYVDGVEVHNAKTKPREEQFNSTYRVVSVLTVLHQDWLNGKEYKCKVSNKGLPSSIEKTISKAKGQPREPQVYTLPPSQEEMTKNQVSLSCAVKGFYPSDIAVEWESNGQPENNYKTTPPVLDSDGSFFLVSRLTVDKSRWQEGNVFSCSVMHEALHNHYTQKSLSLSLG
light 1: EIVLTQSPATLSLSPGERATLSCRASESVAKYGLSLLNWFQQKPGQPPRLLIFAASNRGSGIPARFSGSGSGTDFTLTISSLEPEDFAVYYCQQSKEVPFTFGQGTKVEIKRTVAAPSVFIFPPSDEQLKSGTASVVCLLNNFYPREAKVQWKVDNALQSGNSQESVTEQDSKDSTYSLSSTLTLSKADYEKHKVYACEVTHQGLSSPVTKSFNRGEC
heavy 2: not shown
light 2: DIVLTQSPDSLSVSLGERATINCRASKSVDSYGNSFMHWYQQKPGQPPKLLIYLASNLESGVPDRFSGSGSGTDFTLTISSLQAEDVAVYYCQQNNEDPRTFGGGTKVEIKRTVAAPSVFIFPPSDEQLKSGTASVVCLLNNFYPREAKVQWKVDNALQSGNSQESVTEQDSKDSTYSLSSTLTLSKADYEKHKVYACEVTHQGLSSPVTKSFNRGEC
notes: Knob-in-hole human IgG4 made in E. coli: anti-IL-33 arm as hole, anti-IL-13 arm (lebrikizumab CDRs; Q1E heavy, M4L light) as knob; also called 10C12-IL-13 KIH IgG4; 10C12-IL13 KIH IgG4
- Kd (human IL-13 (Peprotech) [1]): < 0.01 nM
- koff (human IL-13 (Peprotech) [1]): 4e-06 s⁻¹
- kon (human IL-13 (Peprotech) [1]): 1.47e+06 M⁻¹ s⁻¹
- Kd [2]: 0.062 nM
- koff [2]: 4e-05 s⁻¹
- kon [2]: 650000 M⁻¹ s⁻¹
- Kd [3]: 0.026 nM
- koff [3]: 3e-05 s⁻¹
- kon [3]: 1.14e+06 M⁻¹ s⁻¹
- IC50 (read off the curve); phospho-p38 MFI in CD123+ basophils (average from 2 donors), 10 ng/ml IL-33 [4]: ~0.5 nM
- Kd (human IL-13 (Peprotech) [5]): < 0.01 nM
- Kd [6]: 0.076 nM
- Kd [7]: 0.025 nM
- Kd (human IL-13 (Peprotech) [8]): < 0.01 nM
- koff (human IL-13 (Peprotech) [8]): 2e-06 s⁻¹
- kon (human IL-13 (Peprotech) [8]): 1.49e+06 M⁻¹ s⁻¹
- Kd [9]: 0.107 nM
- koff [9]: 7.2e-05 s⁻¹
- kon [9]: 670000 M⁻¹ s⁻¹
- Kd [10]: 0.01 nM
- koff [10]: 1.1e-05 s⁻¹
- kon [10]: 1.1e+06 M⁻¹ s⁻¹
- Kd (human IL-13 (Peprotech) [11]): < 0.01 nM
- koff (human IL-13 (Peprotech) [11]): 6e-06 s⁻¹
- kon (human IL-13 (Peprotech) [11]): 1.45e+06 M⁻¹ s⁻¹
- Kd [12]: 0.059 nM
- koff [12]: 4.1e-05 s⁻¹
- kon [12]: 700000 M⁻¹ s⁻¹
- Kd [13]: 0.041 nM
- koff [13]: 4e-05 s⁻¹
- kon [13]: 990000 M⁻¹ s⁻¹
- IC50; SEAP reporter, HEK-BLUE IL-33 cells, 15 pM human IL-33 N-His, 20 h (human IL-33 N-His): 25.4 pM
